This note sets out measurements from patent US20250009801A1 (Innovent, published 2025).

The target of assay [1] is HB37A6 PG Ab (P329G mutated HB37A6 antibody, human IgG1). The assay is described as follows: cell-based or functional assay.
Assay [2] addresses T1, human Claudin18.2-His (Acro, CL2-H5546) (human, UniProt P56856-2 1-261).
T1 construct: Bought reagent, amine-coupled to a CM5 chip; also called recombinant human CLDN18.2 protein; not shown: His tag
In words: SPR (Biacore T200), Claudin18.2-His coupled on CM5 chip, antibody in the mobile phase (avidity). Background: In SPR one partner is held on a chip, and binding of the other changes the refractive index at the surface.

Where a chain is given by its changes, count along the chain named. In names and notes the source's numbering stands.

HB37A6 PG Ab (P329G mutated HB37A6 antibody, human IgG1), sequence (heavy, as listed by the source, chain 1 of 2): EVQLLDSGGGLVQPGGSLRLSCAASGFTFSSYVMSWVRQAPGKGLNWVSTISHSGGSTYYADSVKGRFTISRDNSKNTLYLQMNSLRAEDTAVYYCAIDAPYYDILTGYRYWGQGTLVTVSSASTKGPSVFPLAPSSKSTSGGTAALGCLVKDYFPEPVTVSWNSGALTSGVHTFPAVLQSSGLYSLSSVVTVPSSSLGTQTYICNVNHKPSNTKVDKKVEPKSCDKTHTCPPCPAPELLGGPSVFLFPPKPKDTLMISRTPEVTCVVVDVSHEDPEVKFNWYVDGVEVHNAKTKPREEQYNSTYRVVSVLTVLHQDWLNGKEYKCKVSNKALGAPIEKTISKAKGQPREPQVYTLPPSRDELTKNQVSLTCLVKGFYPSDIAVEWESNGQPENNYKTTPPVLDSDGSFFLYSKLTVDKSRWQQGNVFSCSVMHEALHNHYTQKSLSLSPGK
HB37A6 PG Ab (P329G mutated HB37A6 antibody, human IgG1), sequence (light, as listed by the source, chain 2 of 2): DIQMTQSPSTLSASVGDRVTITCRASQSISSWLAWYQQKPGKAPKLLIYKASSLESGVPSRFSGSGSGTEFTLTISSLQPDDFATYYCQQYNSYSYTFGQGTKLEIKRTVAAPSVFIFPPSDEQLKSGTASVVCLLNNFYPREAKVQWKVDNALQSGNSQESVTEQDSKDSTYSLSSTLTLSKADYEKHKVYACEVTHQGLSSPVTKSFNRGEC

B1: HuR968B CAR on CAR-T cells (receptor)
chain: EVQLVESGGGLVQPGGSLRLSCAASGFTFSRYWMNWVRQAPGKGLEWVGEITPDSSTINYAPSLKGRFTISRDNAKNSLYLQMNSLRAEDTAVYYCARPYDYGAWFASWGQGTLVTVSSGGGGSGGGGSGGGGSGGGGSQAVVTQEPSLTVSPGGTVTLTCRSSTGAVTTSNYANWVQEKPDHLFTGLIGGTNKRAPGTPARFSGSLLGGKAALTLSGAQPEDEAEYYCALWYSNHWVFGGGTKLTVLGGGGSIYIWAPLAGTCGVLLLSLVITLYCKRGRKKLLYIFKQPFMRPVQTTQEEDGCSCRFPEEEEGGCELRVKFSRSADAPAYQQGQNQLYNELNLGRREEYDVLDKRRGRDPEMGGKPRRKNPQEGLYNELQKDKMAEAYSEIGMKGERRRGKGHDGLYQGLSTATKDTYDALHMQALPPR
Regarding B1, in assay [1], the “proliferation of CAR-T cells on plate-bound antibody (CellTiter-Glo), 2 days, against the WT antibody” value was about 2 fold and the “proliferation of CAR-T cells on plate-bound antibody (CellTiter-Glo), 3 days, against the WT antibody” value is about 3.3 fold.

B2: Hz3G3 PG Ab (antibody, human IgG1, kappa, V domains shown)
VH: QVQLVQSGAEVKKPGASVKVSCKASGYSFTTYWMHWVRQAPGQGLEWMGLIDPSDSETRLNQKFKDRVTMTVDTSTSTVYMELSSLRSEDTAVYYCASNRWLLGWGQGTLVTVSS
VL: DIVMTQSPDSLAVSLGERATINCKSSQSLLNSGNQKNYLTWYQQKPGQPPKLLIYWASTRESGVPDRFSGSGSGTDFTLTISSLQAEDVAVYYCQNDYSYPLTFGQGTKLEIKR
notes: also called G3 PG antibody; G3 antibody
In assay [2], B2 gave a Kd of 2.5 nM, a koff of 0.00177 s⁻¹ and a kon of 709000 M⁻¹ s⁻¹.

B3: Hz69H9 PG Ab (P329G mutated Hz69H9 antibody, human IgG1) (antibody, V domains shown)
VH: QVQLVQSGAEVKKPGSSVKVSCKASGYSFSSYNIHWVRQAPGQGLEWMGYIAPFQGDSRYNQKFKGRVTITADKSTSTAYMELSSLRSEDTAVYYCARLNRGNSLDYWGQGTLVTVSS
VL: B2 VL with L30F, K36R, D97N, S99I, Q106G, L110V
notes: also called H9 PG antibody; P329G H9 antibody
Take B3: in assay [2], the Kd is under 0.00527 nM, the koff was under 1e-05 s⁻¹ and the kon came to 1.9e+06 M⁻¹ s⁻¹.

B4: Hz69H9-SA PG Ab (antibody, human IgG1, kappa, V domains shown)
VH: B3 VH with H35S, S58A
VL: B2 VL with L30F, K36R, D97N, S99I, Q106G, L110V
notes: Mutant of the parent Hz69H9 with point mutations in VH or VL; also called H9-SA PG antibody
In the case of B4, in assay [2], the Kd is 0.325 nM, the koff turned out to be 0.000153 s⁻¹ and the on-rate constant (kon) is 471000 M⁻¹ s⁻¹.

B5: Hz69H9-1.2 PG Ab (antibody, human IgG1, kappa, V domains shown)
VH: B3 VH with S58A, N103Q
VL: B2 VL with L30F, S32A, K36R, D97N, S99I, Q106G, L110V
notes: Mutant of the parent Hz69H9 with point mutations in VH or VL; also called H9-1.2 PG antibody
Turning to B5, in assay [2], the Kd stood at 0.98 nM, the koff stood at 0.00185 s⁻¹ and the kon worked out at 1.89e+06 M⁻¹ s⁻¹.

A word on the koff: it is the first-order rate constant of dissociation. A low value points to slow dissociation. Broadly, the kon is a measure of how fast the partners come together.
